{
  "source": "patent US10391180B2",
  "about": "“Self-assembling complex for targeting chemical agents to cells” (CEDARS-SINAI MEDICAL CENTER, priority 2007, dated 2019)",
  "molecules": {"B1": {"name": "HerDox: non-covalent complex of HerPBK10, a small double-stranded nucleic acid and intercalated Dox (conjugate)", "chain": "LPPRLKEMKSQESAAGSKLVLRCETSSEYSSLRFKWFKNGNELNRKNKPQNIKIQKKPGKSELRINKASLADSGEYMCKVISKLGNDSASANITIVESNEIITGMPASTEGAYVSSESPIRISVSTEGANTSSSTSTSTTGTSHLVKCAEKEKTFCVNGGECFMVKDLSNPSRYLCKCQPGFTGARCTENVPMKVQNQEKAEELYMRRAAMYEEGPPPSYESVVSAAPVAAALGSPFDAPLDPPFVPPRYLRPTGGRNSIRYSELAPLFDTTRVYLVDNKSTDVASLNYQNDHSNFLTTVIQNNDYSPGEASTQTINLDDRSHWGGDLKTILHTNMPNVNEFMFTNKFKARVMVSRLPTKDNQVELKYEWVEFTLPEGNYSETMTIDLMNNAIVEHYLKVGRQNGVLESDIGVKFDTRNFRLGFDPVTGLVMPGVYTNEAFHPDIILLPGCGVDFTHSRLSNLLGIRKRQPFQEGFRITYDDLEGGNIPALLDVDAYQASLKDDTEQGGGGAGGSNSSGSGAEENSNAAAAAMQPVEDMNDHAIRGDTFATRAEEKRAEAEAAAEAAAPAAQPEVEKPQKKPVIKPLTEDSKKRSYNLISNDSTFTQYRSWYLAYNYGDPQTGIRSWTLLCTPDVTCGSEQVYWSLPDMMQDPVTFRSTRQISNFPVVGAELLPVHSKSFYNDQAVYSQLIRQFTSLTHVFNRFPENQILARPPAPTITTVSENVPALTDHGTLPLRNSIGGVQRVTITDARRRTCPYVYKALGIVSPRVLSSRTFKKKKKKKKKK", "modifications": "left off: small tags and cut ends", "notes": "non-covalent complex of HerPBK10, a small double-stranded nucleic acid and intercalated Dox"}},
  "key": {"[1]": {"system": "SKBR3, MDA-MB-435, MDA-MB-453, HeLa, MDA-MB-231", "assay": "Cytotoxicity dose curves on lines displaying differential HER2 (CD50)", "type": "cell-based", "settings": "range of HerDox doses", "procedure": "FIGS. 17 (A)-(B) illustrates relative cell surface HER subunit levels and cytotoxicity on cell types. FIG. 17 (A) depicts a graph of relative cell surface HER subunit levels as measured by ELISA. Cells were incubated with anti-HER subunit antibodies followed by HRP-conjugated secondary antibodies using standard procedures. Relative cell numbers were measured by crystal violet staining and quantified by measuring crystal violet absorbance at 590 nm. Relative subunit levels are reported as the ELISA signal of each cell population normalized by the relative cell number, or Abs 450 run/590 nm. FIG. 17 (B) depicts toxicity to cells displaying differential HER2. Cytotoxicities from a range of HerDox doses were assessed on each cell line by metabolic assay and confirmed by crystal violet stain. CD50 values shown in log scale were determined by non-linear regression analyses of HerDox dose curves using a scientific graphing program and confirmed using a calculator. The relative HER2 level of each cell line is shown next to each CD50 value.\nThe inventors measured cell surface levels of HER subunits on various cell lines and types described herein, as previously described levels may not reflect the actual levels in the available cells used. The inventors acquired the indicated cell lines from ATCC and the NIH/NCI and profiled these with respect to HER subunit levels (FIG. 17 (A)). […]"}, "[2]": {"system": "bilateral flank tumors (HER2+)", "assay": "In vivo tumor toxicity, tumor growth", "set-up": "species or system mice", "settings": "daily tail vein injections, 0.004 mg/kg Dox conc, 7 consecutive days", "procedure": "FIGS. 12 (A)-(D) illustrates comparison of HerDox and Dox on (A) tumor growth, (B) animal weight, (C) cardiac tissue, and (D) cardiac function.\nTo assess in vivo tumor toxicity, mice bearing 3-4 week bilateral flank tumors began receiving daily tail vein injections of Dox or HerDox (0.004 mg/kg with respect to Dox conc), HerPBK10 alone (at equivalent protein concentration to HerDox) or saline for 7 consecutive days."}, "[3]": {"system": "U251 human glioma cells", "assay": "Toxicity to glioma cells, cell counting", "type": "cell-based", "settings": "4 hours, counted after four days", "procedure": "FIGS. 20 (A)-(B) illustrates HerDox is toxic to glioma cells. FIG. 20 (A) depicts HER immunofluorescence on U251 human glioma cells. Images were captured using laser scanning fluorescence confocal microscopy. FIG. 20 (B) depicts a graph of HerDox vs. Dox toxicity to U251 cells. Significant differences were determined by 2-tailed tests.\nU251 cells growing in dishes were incubated with either HerDox or Dox (at either 0.5 uM or 1 uM) in the culture medium for 4 hours at 37° C., 5% C02, after which fresh complete medium was added to increase the final culture volume approximately four-fold, and the cells maintained at 37° C., 5% C02 for four days. Cells were trypsinized and counted on the last day."}, "[4]": {"system": "MDA-MB-231 (HER2−) cells", "assay": "Targeted toxicity, MTT assay, separate dishes", "type": "cell-based", "settings": "HerDox/Dox 0.5 uM Dox; HerPBK10 0.1 uM; day 3", "procedure": "(§1) FIG. 7 illustrates targeted toxicity. Each cell line was exposed to HerDox (0.5 uM Dox cone), Dox alone (0.5 uM), or HerPBK10 alone for 4 h at 37° C. in complete (i.e. serum-containing) media, followed by aspiration to remove free conjugate, and addition of fresh medium while cells are grown continuously. Cell titer was determined by metabolic (i.e. MTT) assay. FIG. 7 upper panel illustrates the effect of HerDox on MDA-MB-231 (HER2−) and MDA-MB-435 (HER2+) cell survival. Relative surviving cell numbers are represented as a % of corresponding untreated cells. FIG. 7 lower panel illustrates comparison of HerDox, Dox alone, or HerPBK10 alone on HER2− and HER2+ cell survival. Relative survival (as % of untreated cells) is shown for Day 3 of treatment.\n(§2) The inventors compared the effect of HerDox or Dox alone at equivalent dosages (0.5 uM with respect to Dox concentration) on HER2+ and HER2− breast cancer cells in separate dishes. By three days, HerDox reduced HER2+ cell numbers by over 75% whereas HER2− cell survival was unaffected (FIG. 7). […] These findings emphasize the importance of targeting by showing that the untargeted drug affects nontarget (i.e. HER2−) cells. Importantly, the protein carrier, HerPBK10, alone at the equivalent concentration of protein in HerDox (0.1 uM) had no effect on either cell line (FIG. 7), including a lack of proliferation induction. To test receptor targeting, the inventors used free heregulin ligand (Her or eHRG) as a competitive inhibitor. […] As a final in vitro challenge, the inventors tested whether HerDox induces toxicity specifically to HER2+ cells in a mixed culture of HER2+ and HER2− breast cancer cells. To do this, the inventors produced a HER2− cell line tagged with green fluorescent protein (GFP) for cell identification in the mixed culture (FIG. 9 (A)). […] Altogether, these findings indicate that HerDox has the capacity to preferentially target toxicity to HER2+ cells. […] Moreover, the preferential cell killing of HER2+ cells in a mixed culture of HER2+ and HER2− cells implies that after death and lysis of the target cells, the Dox released into those cells is incapable of continuing to induce toxicity to HER2− cells. To further confirm the stability of HerDox in cell culture, HerDox was recovered from culture media in separate experiments at indicated time points and electrophoresed on an agarose gel, which was then illuminated by UV to detect Dox and stained with Coomassie blue to detect HerPBK10 protein (FIG. 9 (C)). […] Co-migration of HerPBK10 bands further verified that the conjugates remained intact in the cell media."}, "[5]": {"system": "MDA-MB-435 (HER2+) cells", "assay": "Targeted toxicity, MTT assay, separate dishes", "type": "cell-based", "settings": "0.5 uM Dox conc, 4 h exposure, by three days", "procedure": "as §1, §2"}},
  "data": [
    {"molecule": "B1", "values": [
      {"measurement": "relation of CD50 to cell surface HER2 level", "setting": "[1]", "result": "inversely correlates with cell surface HER2 level"},
      {"measurement": "tumor growth", "setting": "[2]", "result": "essentially prevented tumor growth"},
      {"measurement": "toxicity relative to the equivalent concentration of Dox", "setting": "[3]; 0.5 uM or 1 uM", "result": "8-10 times"},
      {"measurement": "less HerDox eliciting the same toxicity as Dox", "setting": "[3]", "result": 10, "unit": "×"},
      {"measurement": "effect on HER2− cell survival", "setting": "[4]", "result": "unaffected"},
      {"measurement": "reduction of HER2+ cell numbers", "setting": "[5]", "result": "over 75%"}
    ]}
  ]
}
